Assay: yeast display, Sf9 membrane polyspecificity reagent, FACS + sequencing; frameworks hold sequencing errors
Outline: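 Synthetic nanobody libraries on Saccharomyces cerevisiae BJ5465 were galactose-induced for 36–48 hours, stained 1 hour at 4 °C with 10% biotinylated, detergent-solubilized Sf9 membrane reagent and enriched on streptavidin microbeads. FACS then separated cells into low and high (top ~1%) gates by anti-HA (expression) and streptavidin (reagent binding) fluorescence. Genes were colony-PCR amplified, MiSeq 2 × 250 sequenced and CDR-length filtered. A clone's polyreactivity label is that of its gate of origin.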
With “QVQLVESGGGLVQAGGSLRLSCAASGSSGYFYALGWSRPAPGKERELVADMDWSGDSTYYADSVKGRFTISRDNAKTTVYLQMNSLKPEDTAVYYCNAAYDYYSPSYTYDYWGQGTQVTVSS” the “polyreactivity (PSR sort gate)” value was “low polyreactivity”. With “QVQLVESGGGLVQAGGSLRLSCAASGSSTLMLMGWYRQAPGKERELVAVITSSGGRTYYADSVKGRFTISRDNAKNTVYLQMNSLKPEDTAVYYCNVDIGVYAYESDYWGQGTQVTVSS” the “polyreactivity (PSR sort gate)” value was “low polyreactivity”. For “QVQLVESGGGLVQAGGSLRLSCAASGSTCRGYAMGWYRQAPGKEREFVAAISRRGGTTYYADSVKGRFTISRDNAKNTVYLQMNSLKQEDTAVYYCNKVYYQHYLAFDYWGQGTQVTVSS”, the “polyreactivity (PSR sort gate)” value was “high polyreactivity”. In the case of “QVQLVESGGGLVQAGGSLRLSCAASGSTFAANAMGWSRPAPGKERELVAAITSSGGSTYYADSVKGRFTISRDYAKNTVYLQMNSLKPEDTAVYYCNKDIERYVRIYDSWGQGTQVTVSS”, the “polyreactivity (PSR sort gate)” value is reported as “low polyreactivity”. With “QVQLVESGGGLVQAGGSLRLSCAASGSTFACNAMGWDRQAPGKERELVAAISWSGGSTYYADSVKGRFTISRDNAKNTVYLQMNSLKPEDTAVYYCAARRYASRTGYLYDFWGQGTQVTVSS” the “polyreactivity (PSR sort gate)” value was “high polyreactivity”. With “QVQLVESGGGLVQAGGSLRLSCAASGSTFADNAMGWYSQARGKAGEFVAGISTNGGSTYYADSVKGRFTISRDNAKNTVYLQMNSLKPEDTAVYYCSAVNYYDQYGDYYWGQGTQVTVSS” the “polyreactivity (PSR sort gate)” value was “low polyreactivity”. For “QVQLVESGGGLVQAGGSLRLSCAASGSTFADYAMGWYRQAPGKERELVAAITQSGGSTSYADSVKGRFTISRDNAKNTVYLQMNSLKPEDTAVYYCNVDDSTWIGAYRRYDYWGQGTQVTVSS”, the “polyreactivity (PSR sort gate)” value was “low polyreactivity”. In the case of “QVQLVESGGGLVQAGGSLRLSCAASGSTFADYAMGWYRQAPGKERELVAAITSSGGSTYYADSVKGRFTISRDNAKYTVYLQMKSLKAAETAGYYCNARVPRLLFVRFYGMDYWGQGNQVTVSS”, the “polyreactivity (PSR sort gate)” value is reported as “low polyreactivity”. In the case of “QVQLVESGGGLVQAGGSLRLSCAASGSTFAFYDMGWYRQAPGKERELVAIIDWSGGRTYYADSVKGRFTISRDNAKNTVYLQMNSLKPEDTAVYYCNAENTYLGSRYRPYNYWGQGTQVTVSS”, the “polyreactivity (PSR sort gate)” value is reported as “low polyreactivity”. In the case of “QVQLVESGGGLVQAGGSLRLSCAASGSTFAGNAIGWYRQAPGKERELVAAIDSSTGSTYYADSVKGRFTISRDNAKNTVFLQMNSLKPEDTAVYYCNKTSFLVNLDYWGQGTQVTVSS”, the “polyreactivity (PSR sort gate)” value is reported as “low polyreactivity”. With “QVQLVESGGGLVQAGGSLRLSCAASGSTFAGNAMGWYRQAPGKERELVAAIDSSTGSTYYADSVKGRFTISRDNAKNTVYLQMNSLKPEDTAVYYCNNTSFLVKLDYWGQGTQVTVSS” the “polyreactivity (PSR sort gate)” value was “low polyreactivity”. For “QVQLVESGGGLVQAGGSLRLSCAASGSTFAGNAMGWYRQAPGKERELVAAIDSSTGSTYYADSVKGRFTISRDNAKNTVYLQMNSLKPEDTAVYYSNAEIYPIVKAGRQHPRRYDYWGQGTQVTVSS”, the “polyreactivity (PSR sort gate)” value was “low polyreactivity”. For “QVQLVESGGGLVQAGGSLRLSCAASGSTFAGNAMGWYRQAPGKERELVAAISSSGAGTYYADSVKGRFTISRDNAKNTVYLQMNSLKPEDTAVYYCNVGSRALRRRVRSVSFDYWGQGTQVTVSS”, the “polyreactivity (PSR sort gate)” value was “low polyreactivity”. For “QVQLVESGGGLVQAGGSLRLSCAASGSTFAGNTMGWYRQAPGKERELVAAITWNGGRTRYADSVKGRFTISRDNAKNTVYLQMNSLKPEDTAVYYCNAGPWYENMDYWGQGTQVTVSS”, the “polyreactivity (PSR sort gate)” value was “high polyreactivity”. In the case of “QVQLVESGGGLVQAGGSLRLSCAASGSTFAGYALGWYRQAPGKERELVADITWSGGSTYYADSVKGRFTISRDNAKNTVYLQMNSLKPEDTAVYYCAAAGYYSDMDYWGQGTQVTVSS”, the “polyreactivity (PSR sort gate)” value is reported as “low polyreactivity”. With “QVQLVESGGGLVQAGGSLRLSCAASGSTFAGYVMGFYIQATGKERELVAAISGSGGSTYYADSVKGRFTISRDNAKKTVYLQMNSLKPEDTAVYYCAKRAIIKYRGGYGYWGQGTQVTVSS” the “polyreactivity (PSR sort gate)” value was “high polyreactivity”. In the case of “QVQLVESGGGLVQAGGSLRLSCAASGSTFAINAMGWYRQAPGKERELVAAISSSGSTNYADSVKGRFTISRDNAKNTVYLQMNSLKPEDTAVYYCAADQYWDGYDFLYDYWGQGTQVTVSS”, the “polyreactivity (PSR sort gate)” value is reported as “low polyreactivity”. With “QVQLVESGGGLVQAGGSLRLSCAASGSTFAINAMGWYRQAPGKERELVAAMSSSGSTNYADSGNGRFTISRDNAKNTVYLQMNSLKPEDTAVYYCAADRVWGTPQAYVPSQFDYWGQGTQVTVSS” the “polyreactivity (PSR sort gate)” value was “low polyreactivity”. With “QVQLVESGGGLVQAGGSLRLSCAASGSTFAIYAMGWYRQAPGKERELVAAINSGGSTNYADSVKGRFTISRDNAKNTVYLQMNSLKPEDTAVYYCNTDAWHETPVSGYSWGQGTQVTVSS” the “polyreactivity (PSR sort gate)” value was “low polyreactivity”. With “QVQLVESGGGLVQAGGSLRLSCAASGSTFAIYAMGWYRQAPGKERELVAAITRGSTSYADSVKGRFTISRDNAKNTVYLQMYSLKPEDTAVYYCAADSSRYGVIRDFDYWGQGTQVTVSS” the “polyreactivity (PSR sort gate)” value was “high polyreactivity”. For “QVQLVESGGGLVQAGGSLRLSCAASGSTFAKYVMGWYRQAPGKERELVAAISTRGTRTYYADSVKGRFTISRDTAKNTVYLQMNSLKPEDTAVYYCAVVTIISSRLGNYWGQGTQVTVSS”, the “polyreactivity (PSR sort gate)” value was “high polyreactivity”. For “QVQLVESGGGLVQAGGSLRLSCAASGSTFAPNAMGWYRQAPGKERELVAAISSGSSTYYADSVKGRFTISRDNAKNTVYLQMNSLKPEDTAVYYCARRVSWGYYYWGQGTQVTVSS”, the “polyreactivity (PSR sort gate)” value was “high polyreactivity”. In the case of “QVQLVESGGGLVQAGGSLRLSCAASGSTFAPNAMGWYRQAPGKERELVAAISSGSSTYYADSVKGRFTISRDNAKNTVYLQMNSLKQEVNAVYYCAARSTYYSRKQLVDYWGQGTQVTVSS”, the “polyreactivity (PSR sort gate)” value is reported as “high polyreactivity”. With “QVQLVESGGGLVQAGGSLRLSCAASGSTFAPNAMGWYRQAPGKERELVAVIDSGDGTTYYADSVKGRFTISRDNAKNTVYLQMNSLKPEDTAVYYCAVDESTSYYDDHEDYWGQGTQVTVSS” the “polyreactivity (PSR sort gate)” value was “low polyreactivity”. In the case of “QVQLVESGGGLVQAGGSLRLSCAASGSTFAPYAMGWYRHAPGKERELVASIRSTGSTNYADSVKGRFTISRDNAKNTVYLQMNSLKPEDTAVYYCAARYRRYQYRVKVDYYYWGQGTQVTVSS”, the “polyreactivity (PSR sort gate)” value is reported as “high polyreactivity”. For “QVQLVESGGGLVQAGGSLRLSCAASGSTFAPYAMGWYRQAPGKERELVAVISSAGSTYYADSVKGRFTLSRDNAKNTDYLQRNSLKPEDTAVYYCAARAPSSISQSRGMYYWGQATQVTVSS”, the “polyreactivity (PSR sort gate)” value was “high polyreactivity”. With “QVQLVESGGGLVQAGGSLRLSCAASGSTFAQNAMGWYRQAPGKERELVAAISRRGGSTYYADSVKGRFTISRDNAKNTVYLQMNSLKPEDTAVYYCAADQPVRQHHRDDYWGQGTQVTVSS” the “polyreactivity (PSR sort gate)” value was “low polyreactivity”. For “QVQLVESGGGLVQAGGSLRLSCAASGSTFAQNAMGWYRQAPGKERELVAAISRRGTITNYADSVKGRFTISRDNAKNTVYLQMNSLKPEDTAVYYCAKEGTWTGGSDNYWGQGTQVTVSS”, the “polyreactivity (PSR sort gate)” value was “high polyreactivity”. For “QVQLVESGGGLVQAGGSLRLSCAASGSTFAQNTMGSYRQAPGKERELVATISDGGGSTYYADSVKGRFTISRDNAKNTVYLQMNSLKPEDTAVYYCNTDRFWPSYYWGQGTQVTVSS”, the “polyreactivity (PSR sort gate)” value was “low polyreactivity”. For “QVQLVESGGGLVQAGGSLRLSCAASGSTFARNVMGWYRQAPGKERELVAAISWRGGRTYYADSVKGRFTISRDNAKNTVYLQMNSLKPEDTAVYYCNAVKRLKVTHSYEYGYWGQGTQVTVSS”, the “polyreactivity (PSR sort gate)” value was “high polyreactivity”. In the case of “QVQLVESGGGLVQAGGSLRLSCAASGSTFARYAMGWSRQAPGKERELVAAISDSSGSTYYADSVKGRFTISRDNAKNTVYLQMNSLKPEDTAVYYCRYYFGSGYYYWGQGTLVTVSS”, the “polyreactivity (PSR sort gate)” value is reported as “high polyreactivity”. With “QVQLVESGGGLVQAGGSLRLSCAASGSTFARYAMGWYRQAHGKERELVAAISRRGGSTYYADSVKGRFTISRDNAKNTVYVQMNSLKPEDTAVHYCAARYGIISSFEYDYWGQGTQVTVSS” the “polyreactivity (PSR sort gate)” value was “high polyreactivity”. In the case of “QVQLVESGGGLVQAGGSLRLSCAASGSTFARYAMGWYRQAPGKERELFAVITWTGGSTYYADSVKGRFTISRDNAKNTVYLQMNSLKPEDTAVYYCAADFRYYVTALKYDYWGQGTQVTVSS”, the “polyreactivity (PSR sort gate)” value is reported as “low polyreactivity”. With “QVQLVESGGGLVQAGGSLRLSCAASGSTFARYAMGWYRQAPRKERELVAAISRSGGSTNYADSVKGRFTISRDNAKNTVYLQMNSLKPEDTAVYYCAVRSGYYDKYVRGYDYWGQGTQVTVSS” the “polyreactivity (PSR sort gate)” value was “high polyreactivity”. With “QVQLVESGGGLVQAGGSLRLSCAASGSTFARYTMGWYRQAPGKERELVAAITSNGVSTYYADSVKGRFTISRDNAKNTVYLQMNSLKPEDTAVYYCAAEYRPRYKRIWVVTKDYWGQGTQVTVSS” the “polyreactivity (PSR sort gate)” value was “low polyreactivity”. For “QVQLVESGGGLVQAGGSLRLSCAASGSTFASHVMGWYRQAPGKERELVAAITRGDRTHYADSVKGRFTISRDNAKNTVYLQMNSLKPEDTAVYYCAKVTTLGRSRDYWGQGTQVTVSS”, the “polyreactivity (PSR sort gate)” value was “low polyreactivity”. In the case of “QVQLVESGGGLVQAGGSLRLSCAASGSTFASNAMGWDRQAPGKERELVAVITWRGDRTYYADSVKGRFTISRDNAKNTVYLQMNSLKPEDTAVYYCAADAYRRYGVGWEDYWGQGTQVTVSS”, the “polyreactivity (PSR sort gate)” value is reported as “high polyreactivity”. For “QVQLVESGGGLVQAGGSLRLSCAASGSTFATNAMGWDRQAPGKERELVASISSGGSTTYADSVKGRFTISRDNAKNTVYLQMNSLKPEDTAVYYCNKRYLWRNSRGFDYWGQGTQVTVSS”, the “polyreactivity (PSR sort gate)” value was “low polyreactivity”. In the case of “QVQLVESGGGLVQAGGSLRLSCAASGSTFATYAMGWYRQAPGKERELVAAITSGGSTYYADSVKGRFTISRDNAKNTFYFQMNSLKPEDTAVYYCAARSAGWRRATYYKREEYWGQGTQVTVSS”, the “polyreactivity (PSR sort gate)” value is reported as “high polyreactivity”. In the case of “QVQLVESGGGLVQAGGSLRLSCAASGSTFATYTMGWYRQAPGTERELVAAITGSVGSTYYADSVMGRFTISRDNAKNTVYVQMNSRKPQDTAVFYCAARGYRTRRGFTYQYRYEYWGQGTQVTVSS”, the “polyreactivity (PSR sort gate)” value is reported as “high polyreactivity”. With “QVQLVESGGGLVQAGGSLRLSCAASGSTFAVNAMGWYRQAPGKERELVAAITSGGNTYADSVKGRFTISRDNAKNTVYLQMNSLKPEDTAVYYCAAALTEVVYWIYDYWGQGTQVTVSS” the “polyreactivity (PSR sort gate)” value was “low polyreactivity”. In the case of “QVQLVESGGGLVQAGGSLRLSCAASGSTFAVYAMGWYRPAPGKERELVAGISSRGGRTYYADSVKGRFTISRDNAKNTVYLQMNSLKPEDTAVYYCAARFKGNPDRYGYWGQGTQVTVSS”, the “polyreactivity (PSR sort gate)” value is reported as “high polyreactivity”. In the case of “QVQLVESGGGLVQAGGSLRLSCAASGSTFAVYGMGWYRQAPGKERELVAAISSSGARTYYADSVKGRFTISRDNAKNTVYLQMNSLKPEDTAVYYCAALPHRQAGYDYWGLGTQVTVSS”, the “polyreactivity (PSR sort gate)” value is reported as “high polyreactivity”.
